Data reported in patent US20260274985A1 (MYTHIC THERAPEUTICS, published 2026).

T1: Human TROP2 Protein, His Tag (Acro Biosystems) (human, UniProt P09758 27-274)
T1 construct: Bought protein; not shown: His tag
T1 sequence (looked up): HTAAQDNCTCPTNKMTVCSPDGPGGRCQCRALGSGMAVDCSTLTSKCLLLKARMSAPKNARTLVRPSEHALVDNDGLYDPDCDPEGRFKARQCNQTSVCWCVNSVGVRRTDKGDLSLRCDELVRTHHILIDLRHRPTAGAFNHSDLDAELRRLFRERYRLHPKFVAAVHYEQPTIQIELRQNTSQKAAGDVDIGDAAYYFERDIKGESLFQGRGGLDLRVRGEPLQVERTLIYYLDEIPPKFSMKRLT

T2: Human TROP2 Protein, His Tag (Acro Biosystems) (human, UniProt P09758 27-274)
T2 construct: also called TACSTD2; not shown: His tag
T2 sequence (looked up): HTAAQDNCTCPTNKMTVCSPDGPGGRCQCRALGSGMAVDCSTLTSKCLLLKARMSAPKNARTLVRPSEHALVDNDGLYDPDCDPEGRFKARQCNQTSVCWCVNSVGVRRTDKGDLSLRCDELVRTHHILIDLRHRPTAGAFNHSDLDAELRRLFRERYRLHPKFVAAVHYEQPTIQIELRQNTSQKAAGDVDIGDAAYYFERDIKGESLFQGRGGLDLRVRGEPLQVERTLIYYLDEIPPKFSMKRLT

T3: Human TROP2 Protein, His Tag (Acro Biosystems) (human, UniProt P09758 27-274)
T3 construct: Bought antigen used at 50 nM in the Octet screen; also called TACSTD2; not shown: His tag
T3 sequence (looked up): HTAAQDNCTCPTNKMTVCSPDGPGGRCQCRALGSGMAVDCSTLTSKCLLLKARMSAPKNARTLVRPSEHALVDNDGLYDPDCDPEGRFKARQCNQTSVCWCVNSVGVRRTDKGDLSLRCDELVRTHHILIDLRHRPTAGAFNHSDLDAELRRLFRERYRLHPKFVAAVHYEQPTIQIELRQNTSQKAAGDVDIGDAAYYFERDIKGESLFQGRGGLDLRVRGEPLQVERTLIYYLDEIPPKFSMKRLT

B1: MYT11622 (antibody, V domains shown)
VH: QVQLQQSGSELKKPGASVKVSCKASGYTFTNYGMNWVKQAPGQGLKWMGWINTYTGEPTYTDDFKGRFAFSLDTSVSTAYLQISSLKADDTAVYFCARGGFGSSYWYFDVWGQGSLVTVSS
VL: DIQLTQSPSSLSASVGDRVSITCKASQDVSIAVAWYQQKPGKAPKLLIYSASHRYTGVPDRFSGSGSGTDFTLTISSLQPEDFAVYYCQQHYITPLTFGAGTKVEIK
notes: Sacituzumab variant, His at LCV position 53 (L2 04)
B2: MYT11623 (antibody, V domains shown)
VH: QVQLQQSGSELKKPGASVKVSCKASGYTFTNYGMNWVKQAPGQGLKWMGWINTYTGEPTYTDDFKGRFAFSLDTSVSTAYLQISSLKADDTAVYFCARGGFGSSYWYFDVWGQGSLVTVSS
VL: DIQLTQSPSSLSASVGDRVSITCKASQDVSIAVAWYQQKPGKAPKLLIYSASYHYTGVPDRFSGSGSGTDFTLTISSLQPEDFAVYYCQQHYITPLTFGAGTKVEIK
notes: Sacituzumab variant, His at LCV position 54 (L2 05)
B3: MYT11624 (antibody, V domains shown)
VH: QVQLQQSGSELKKPGASVKVSCKASGYTFTNYGMNWVKQAPGQGLKWMGWINTYTGEPTYTDDFKGRFAFSLDTSVSTAYLQISSLKADDTAVYFCARGGFGSSYWYFDVWGQGSLVTVSS
VL: DIQLTQSPSSLSASVGDRVSITCKASQDVSIAVAWYQQKPGKAPKLLIYSASYRHTGVPDRFSGSGSGTDFTLTISSLQPEDFAVYYCQQHYITPLTFGAGTKVEIK
notes: Sacituzumab variant, His at LCV position 55 (L2 06)
B4: MYT11625 (antibody, V domains shown)
VH: QVQLQQSGSELKKPGASVKVSCKASGYTFTNYGMNWVKQAPGQGLKWMGWINTYTGEPTYTDDFKGRFAFSLDTSVSTAYLQISSLKADDTAVYFCARGGFGSSYWYFDVWGQGSLVTVSS
VL: DIQLTQSPSSLSASVGDRVSITCKASQDVSIAVAWYQQKPGKAPKLLIYSASYRYHGVPDRFSGSGSGTDFTLTISSLQPEDFAVYYCQQHYITPLTFGAGTKVEIK
notes: Sacituzumab variant, His at LCV position 56 (L2 07)
B5: MYT11626 (antibody, V domains shown)
VH: QVQLQQSGSELKKPGASVKVSCKASGYTFTNYGMNWVKQAPGQGLKWMGWINTYTGEPTYTDDFKGRFAFSLDTSVSTAYLQISSLKADDTAVYFCARGGFGSSYWYFDVWGQGSLVTVSS
VL: DIQLTQSPSSLSASVGDRVSITCKASQDVSIAVAWYQQKPGKAPKLLIYSASYRYTGVPDRFSGSGSGTDFTLTISSLQPEDFAVYYCHQHYITPLTFGAGTKVEIK
notes: Sacituzumab variant, His at LCV position 89 (L3 01)
B6: MYT11627 (antibody, V domains shown)
VH: QVQLQQSGSELKKPGASVKVSCKASGYTFTNYGMNWVKQAPGQGLKWMGWINTYTGEPTYTDDFKGRFAFSLDTSVSTAYLQISSLKADDTAVYFCARGGFGSSYWYFDVWGQGSLVTVSS
VL: DIQLTQSPSSLSASVGDRVSITCKASQDVSIAVAWYQQKPGKAPKLLIYSASYRYTGVPDRFSGSGSGTDFTLTISSLQPEDFAVYYCQHHYITPLTFGAGTKVEIK
notes: Sacituzumab variant, His at LCV position 90 (L3 02)
B7: MYT11628 (antibody, V domains shown)
VH: QVQLQQSGSELKKPGASVKVSCKASGYTFTNYGMNWVKQAPGQGLKWMGWINTYTGEPTYTDDFKGRFAFSLDTSVSTAYLQISSLKADDTAVYFCARGGFGSSYWYFDVWGQGSLVTVSS
VL: DIQLTQSPSSLSASVGDRVSITCKASQDVSIAVAWYQQKPGKAPKLLIYSASYRYTGVPDRFSGSGSGTDFTLTISSLQPEDFAVYYCQQAYITPLTFGAGTKVEIK
notes: Sacituzumab variant, Ala at LCV position 91 (L3 03; His in the parent)
B8: MYT11629 (antibody, V domains shown)
VH: QVQLQQSGSELKKPGASVKVSCKASGYTFTNYGMNWVKQAPGQGLKWMGWINTYTGEPTYTDDFKGRFAFSLDTSVSTAYLQISSLKADDTAVYFCARGGFGSSYWYFDVWGQGSLVTVSS
VL: DIQLTQSPSSLSASVGDRVSITCKASQDVSIAVAWYQQKPGKAPKLLIYSASYRYTGVPDRFSGSGSGTDFTLTISSLQPEDFAVYYCQQHHITPLTFGAGTKVEIK
notes: Sacituzumab variant, His at LCV position 92 (L3 04)
B9: MYT11630 (antibody, V domains shown)
VH: QVQLQQSGSELKKPGASVKVSCKASGYTFTNYGMNWVKQAPGQGLKWMGWINTYTGEPTYTDDFKGRFAFSLDTSVSTAYLQISSLKADDTAVYFCARGGFGSSYWYFDVWGQGSLVTVSS
VL: DIQLTQSPSSLSASVGDRVSITCKASQDVSIAVAWYQQKPGKAPKLLIYSASYRYTGVPDRFSGSGSGTDFTLTISSLQPEDFAVYYCQQHYHTPLTFGAGTKVEIK
notes: Sacituzumab variant, His at LCV position 93 (L3 05)
B10: MYT11631 (antibody, V domains shown)
VH: QVQLQQSGSELKKPGASVKVSCKASGYTFTNYGMNWVKQAPGQGLKWMGWINTYTGEPTYTDDFKGRFAFSLDTSVSTAYLQISSLKADDTAVYFCARGGFGSSYWYFDVWGQGSLVTVSS
VL: DIQLTQSPSSLSASVGDRVSITCKASQDVSIAVAWYQQKPGKAPKLLIYSASYRYTGVPDRFSGSGSGTDFTLTISSLQPEDFAVYYCQQHYIHPLTFGAGTKVEIK
notes: Sacituzumab variant, His at LCV position 94 (L3 06)
B11: MYT11632 (antibody, V domains shown)
VH: QVQLQQSGSELKKPGASVKVSCKASGYTFTNYGMNWVKQAPGQGLKWMGWINTYTGEPTYTDDFKGRFAFSLDTSVSTAYLQISSLKADDTAVYFCARGGFGSSYWYFDVWGQGSLVTVSS
VL: DIQLTQSPSSLSASVGDRVSITCKASQDVSIAVAWYQQKPGKAPKLLIYSASYRYTGVPDRFSGSGSGTDFTLTISSLQPEDFAVYYCQQHYITHLTFGAGTKVEIK
notes: Sacituzumab variant, His at LCV position 95 (L3 07)
B12: MYT11633 (antibody, V domains shown)
VH: QVQLQQSGSELKKPGASVKVSCKASGYTFTNYGMNWVKQAPGQGLKWMGWINTYTGEPTYTDDFKGRFAFSLDTSVSTAYLQISSLKADDTAVYFCARGGFGSSYWYFDVWGQGSLVTVSS
VL: DIQLTQSPSSLSASVGDRVSITCKASQDVSIAVAWYQQKPGKAPKLLIYSASYRYTGVPDRFSGSGSGTDFTLTISSLQPEDFAVYYCQQHYITPHTFGAGTKVEIK
notes: Sacituzumab variant, His at LCV position 96 (L3 08)
B13: MYT11634 (antibody, V domains shown)
VH: QVQLQQSGSELKKPGASVKVSCKASGYTFTNYGMNWVKQAPGQGLKWMGWINTYTGEPTYTDDFKGRFAFSLDTSVSTAYLQISSLKADDTAVYFCARGGFGSSYWYFDVWGQGSLVTVSS
VL: DIQLTQSPSSLSASVGDRVSITCKASQDVSIAVAWYQQKPGKAPKLLIYSASYRYTGVPDRFSGSGSGTDFTLTISSLQPEDFAVYYCQQHYITPLHFGAGTKVEIK
notes: Sacituzumab variant, His at LCV position 97 (L3 09)
B14: MYT13367 (antibody, V domains shown)
VH: QVQLQQSGSELKKPGASVKVSCKASGYTFTNYHMNWVKQAPGQGLKWMGWINTYTGEPTYTDDFKGRFAFSLDTSVSTAYLQISSLKADDTAVYFCARGGFGSSYWYFDVWGQGSLVTVSS
VL: DIQLTQSPSSLSASVGDRVSITCKASQDVHIAHAWYQQKPGKAPKLLIYSASYRYTGVPDRFSGSGSGTDFTLTISSLQPEDFAVYYCQQHYITPLTFGAGTKVEIK
notes: Sacituzumab HC-LC pairing variant
B15: MYT13375 (antibody, V domains shown)
VH: QVQLQQSGSELKKPGASVKVSCKASGYTFTNYHMNWVKQAPGQGLKWMGWINTYTGEPTYTDDFKGRFAFSLDTSVSTAYLQISSLKADDTAVYFCARGGFGSSYWYFDVWGQGSLVTVSS
VL: DIQLTQSPSSLSASVGDRVSITCKASQDVHIAVAWYQQKPGKAPKLLIYSHSYRYTGVPDRFSGSGSGTDFTLTISSLQPEDFAVYYCQQHYITPLTFGAGTKVEIK
notes: as for B14
B16: MYT11772 (antibody, V domains shown)
VH: QVQLQESGPGLVKPSETLSLTCTVSGGSISSYGVHWIRQPPGKGLEWIGVIWTSGVTDYNSALMGRVTISVDTSKNQFSLKLSSVTAADTAVYYCARDGDYDRYTMDYWGQGTLVTVSS
VL: DIVMTQSPDSLAVSLGERATINCRASKSVSTSGYSYMHWYQQKPGQPPKLLIYLASNLESGVPDRFSGSGSGTDFTLTISSLQAEDVAVYYCQHSRELHYTFGQGTKLEIK
notes: hu7E6SVG variant, His at LCV position 99 (L3 07); screened as IgG in Expi293 supernatant
B17: MYT11774 (antibody, V domains shown)
VH: QVQLQESGPGLVKPSETLSLTCTVSGGSISSYGVHWIRQPPGKGLEWIGVIWTSGVTDYNSALMGRVTISVDTSKNQFSLKLSSVTAADTAVYYCARDGDYDRYTMDYWGQGTLVTVSS
VL: DIVMTQSPDSLAVSLGERATINCRASKSVSTSGYSYMHWYQQKPGQPPKLLIYLASNLESGVPDRFSGSGSGTDFTLTISSLQAEDVAVYYCQHSRELPYHFGQGTKLEIK
notes: hu7E6SVG variant, His at LCV position 101 (L3 09); screened as IgG in Expi293 supernatant

These binders were tested against T1, Human TROP2 Protein, His Tag (Acro …) (assay: BLI (Octet)).
B1: binds.
B2: binds.
B3: binds.
B4: binds.
B5: binds.
B6: binds.
B7: binds.
B8: binds.
B9: binds.
B10: binds.
B11: binds.
B12: binds.
B13: binds.

The binders below were run against T2, Human TROP2 Protein, His Tag (Acro …) (assay: BLI (Octet) [1/2]).
B14: binds.
B15: binds.

What follows are binders tested against T3, Human TROP2 Protein, His Tag (Acro …) (assay: BLI (Octet) [2/2]).
Procedure: After allowing for four days of protein expression, cell culture supernatants were collected, quantified by SDS-PAGE analysis (DNS), and the pH dependence of the variant was evaluated using biolayer interferometry (BLI) on an Octet RED 96e instrument. Briefly, cell culture supernatants were diluted based on qualitative expression level of the variant determined by visual examination of SDS-PAGE gels, 5 μL of cell culture supernatant was diluted into 195 μL of 1×PBST, pH 7.4 for high expressors, 25 μL of cell culture supernatant was diluted into 175 μL of 1×PBST, pH 7.4 for medium expressors and 100 μL of cell culture supernatant was diluted into 100 μL of 1×PBST, pH 7.4 for low expressors for loading onto the sensor tips. The resulting diluted supernatants were then captured on an anti-human Fc sensor (Forte Bio). A baseline was established using 1×PBST (50 mM Potassium Phosphate Buffer+150 mM NaCl+0.05% Tween 20) pH 7.4, and the sensor was associated with 50 nM of TROP2 (Human TROP2 Protein, His Tag, Acro Biosystems) in 1×PBST pH 7.4 for 120 sec to generate an association curve. In the dissociation phase, the antibody-antigen complex on the sensor was exposed to 1×PBST pH 7.4 or pH 5.4, for 300 sec. Association and dissociation phase curves were examined for the starting ABPC antibody (with no substitutions) and each corresponding antibody variant at pH 5.4 and pH 7.4 to inform on two criteria: a) enhanced dissociation (i.e., higher koff values) at pH 5.4 due to histidine or alanine substitution compared to the starting ABPC, (with no substitutions), and b) reduced dissociation at pH 7.4 (i.e., lower koff values) compared to pH 5.4 in the antibody variant itself and with the starting ABPC (with no substitutions). […] It was also noted that while some mutations obliterated TROP2 binding, others were tolerated with little or n change in TROP2 binding kinetics.
B16: binds.
B17: binds.
